We go through 1 protein from PMC1869045 (Journal of thrombosis and haemostasis : JTH, 2007).

This data set deals with the molecule itself. Kind of data set: FRET or BRET. For orientation: In BRET a luciferase serves as donor, and the signal depends on an acceptor being close.

B1: GPVI BRET pair (GPVI-GFP and GPVI-luciferase) (receptor, UniProt Q9HCN6 21-339, looked up)
chain: QSGPLPKPSLQALPSSLVPLEKPVTLRCQGPPGVDLYRLEKLSSSRYQDQAVLFIPAMKRSLAGRYRCSYQNGSLWSLPSDQLELVATGVFAKPSLSAQPGPAVSSGGDVTLQCQTRYGFDQFALYKEGDPAPYKNPERWYRASFPIITVTAAHSGTYRCYSFSSRDPYLWSAPSDPLELVVTGTSVTPSRLPTEPPSPVAEFSEATAELTVSFTNEVFTTETSRSITASPKESDSPAGPARQYYTKGNLVRICLGAVILIILAGFLAEDWHSRRKRLRHRGRAVQRPLPPLPPLPLTRKSNGGQDGGRQDVHSRGLCS
For orientation: stoichiometry N means the number of molecules, sites or subunits per partner or assembly. For the protein B1, the “stoichiometry N” value came to 2.
